Source: patent US20220275077A1
Like-named read-outs stand apart in the source and are kept apart here.

T1: FERD3L (human) (UniProt Q96RJ6)
T1 sequence (looked up): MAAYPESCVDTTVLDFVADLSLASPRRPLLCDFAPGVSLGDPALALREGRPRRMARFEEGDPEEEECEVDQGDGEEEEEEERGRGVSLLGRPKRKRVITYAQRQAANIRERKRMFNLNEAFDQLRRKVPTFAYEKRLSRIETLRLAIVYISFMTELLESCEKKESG

T2: human Interleukin-38 (IL-38) (human) (UniProt Q8WWZ1)
T2 sequence (looked up): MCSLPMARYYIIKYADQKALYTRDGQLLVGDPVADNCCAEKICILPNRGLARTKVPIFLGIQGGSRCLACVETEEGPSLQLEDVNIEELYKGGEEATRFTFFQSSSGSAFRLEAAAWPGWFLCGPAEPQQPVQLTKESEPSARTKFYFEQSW

T3: IL-1α (human) (UniProt P01583)
T3 sequence (looked up): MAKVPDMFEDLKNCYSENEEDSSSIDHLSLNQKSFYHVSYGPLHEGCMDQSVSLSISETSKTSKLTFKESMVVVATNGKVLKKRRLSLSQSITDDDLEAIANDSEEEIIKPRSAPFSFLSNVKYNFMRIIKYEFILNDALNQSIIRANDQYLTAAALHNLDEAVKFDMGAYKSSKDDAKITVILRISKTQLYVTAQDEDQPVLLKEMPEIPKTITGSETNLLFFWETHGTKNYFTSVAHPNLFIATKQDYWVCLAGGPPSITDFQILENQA

T4: IL-33 (human) (UniProt O95760)
T4 sequence (looked up): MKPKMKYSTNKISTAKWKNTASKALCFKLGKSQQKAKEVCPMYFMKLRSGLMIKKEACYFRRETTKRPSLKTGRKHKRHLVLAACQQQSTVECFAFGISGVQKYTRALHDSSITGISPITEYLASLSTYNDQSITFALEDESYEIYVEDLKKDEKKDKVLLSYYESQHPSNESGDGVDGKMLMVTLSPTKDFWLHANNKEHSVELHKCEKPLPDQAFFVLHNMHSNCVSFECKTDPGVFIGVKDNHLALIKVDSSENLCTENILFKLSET

T5: IL-36Ra (human) (UniProt Q9UBH0)
T5 sequence (looked up): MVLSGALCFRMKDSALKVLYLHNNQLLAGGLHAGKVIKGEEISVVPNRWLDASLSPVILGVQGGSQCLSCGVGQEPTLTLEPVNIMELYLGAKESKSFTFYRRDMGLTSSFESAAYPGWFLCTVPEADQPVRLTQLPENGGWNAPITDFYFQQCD

T6: IL-36a (human) (UniProt Q9UHA7)
T6 sequence (looked up): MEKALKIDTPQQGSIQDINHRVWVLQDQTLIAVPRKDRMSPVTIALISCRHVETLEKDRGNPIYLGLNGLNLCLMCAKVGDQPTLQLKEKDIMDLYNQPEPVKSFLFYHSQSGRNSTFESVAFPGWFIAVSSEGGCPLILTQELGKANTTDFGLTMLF

T7: IL-36b (human) (UniProt Q9NZH7)
T7 sequence (looked up): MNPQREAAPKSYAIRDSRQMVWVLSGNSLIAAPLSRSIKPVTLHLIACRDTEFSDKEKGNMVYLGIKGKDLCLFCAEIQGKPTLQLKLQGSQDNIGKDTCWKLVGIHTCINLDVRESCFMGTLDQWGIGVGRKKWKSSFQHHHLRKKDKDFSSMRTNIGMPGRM

T8: IL-36g (human) (UniProt Q9NZH8)
T8 sequence (looked up): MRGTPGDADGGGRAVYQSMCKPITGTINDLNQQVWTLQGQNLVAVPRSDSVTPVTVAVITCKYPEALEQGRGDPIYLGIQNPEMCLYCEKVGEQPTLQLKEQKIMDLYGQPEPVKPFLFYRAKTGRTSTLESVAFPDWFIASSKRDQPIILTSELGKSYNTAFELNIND

T9: IL-37 (human) (UniProt Q9NZH6)
T9 sequence (looked up): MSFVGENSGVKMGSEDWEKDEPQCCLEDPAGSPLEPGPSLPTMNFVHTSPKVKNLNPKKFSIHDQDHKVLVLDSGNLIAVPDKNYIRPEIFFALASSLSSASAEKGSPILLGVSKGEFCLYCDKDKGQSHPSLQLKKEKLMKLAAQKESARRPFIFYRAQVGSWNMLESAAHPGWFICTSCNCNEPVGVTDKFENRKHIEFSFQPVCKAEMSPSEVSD


Key:
FERD3L (human) = target: T1, FERD3L (human); assay: CDI HuProt native protein microarray
[1] = target: T2, human Interleukin-38 (IL-38) (human); assay: CDI HuProt native protein microarray
IL-18 (human) = IL-18 (human) (UniProt Q14116); assay: CDI HuProt native protein microarray
Chain of IL-18 (human) (Q14116 whole entry): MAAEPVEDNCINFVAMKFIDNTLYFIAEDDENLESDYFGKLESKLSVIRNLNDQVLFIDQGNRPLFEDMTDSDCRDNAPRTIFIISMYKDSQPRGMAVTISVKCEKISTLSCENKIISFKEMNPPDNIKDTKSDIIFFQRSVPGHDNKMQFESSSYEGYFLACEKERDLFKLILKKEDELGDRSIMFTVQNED

IL-1Ra (human) = IL-1Ra (human) (UniProt P18510); assay: CDI HuProt native protein microarray
Chain of IL-1Ra (human) (P18510 26-177 limits assumed): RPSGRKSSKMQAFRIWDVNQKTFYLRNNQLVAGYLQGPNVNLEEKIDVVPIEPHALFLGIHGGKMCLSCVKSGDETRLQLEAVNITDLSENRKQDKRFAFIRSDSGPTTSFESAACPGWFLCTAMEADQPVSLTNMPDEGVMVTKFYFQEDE

IL-1α (human) = target: T3, IL-1α (human); assay: CDI HuProt native protein microarray
IL-1β (human) = IL-1β (human) (UniProt P01584); assay: CDI HuProt native protein microarray
Chain of IL-1β (human) (P01584 whole entry): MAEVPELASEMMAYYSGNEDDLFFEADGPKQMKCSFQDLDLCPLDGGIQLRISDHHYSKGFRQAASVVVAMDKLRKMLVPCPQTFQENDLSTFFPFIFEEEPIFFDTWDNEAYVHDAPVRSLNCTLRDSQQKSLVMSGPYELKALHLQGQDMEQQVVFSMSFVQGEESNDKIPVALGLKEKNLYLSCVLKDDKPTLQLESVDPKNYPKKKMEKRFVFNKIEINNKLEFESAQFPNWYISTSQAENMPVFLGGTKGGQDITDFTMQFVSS

IL-33 (human) = target: T4, IL-33 (human); assay: CDI HuProt native protein microarray
IL-36Ra (human) = target: T5, IL-36Ra (human); assay: CDI HuProt native protein microarray
IL-36a (human) = target: T6, IL-36a (human); assay: CDI HuProt native protein microarray
IL-36b (human) = target: T7, IL-36b (human); assay: CDI HuProt native protein microarray
IL-36g (human) = target: T8, IL-36g (human); assay: CDI HuProt native protein microarray
IL-37 (human) = target: T9, IL-37 (human); assay: CDI HuProt native protein microarray
[2] = target: T2, human Interleukin-38 (IL-38) (human); assay: CDI HuProt native protein microarray; remark: listed apart in the source
Hnmph1 = assay: CDI HuProt native protein microarray
[3] = target: T2, human Interleukin-38 (IL-38) (human); assay: BLI (Octet QKe), antibody on anti-mouse Fc biosensor, soluble IL-38, 1:1 model

| F635 (FERD3L (human)) | Z-score (FERD3L (human)) | s-score (FERD3L (human)) | F635 [1] | s-score [1] | Z-score (IL-18 (human)) | Z-score (IL-1Ra (human)) | Z-score (IL-1α (human)) | Z-score (IL-1β (human)) | Z-score (IL-33 (human)) | Z-score (IL-36Ra (human)) | Z-score (IL-36a (human)) | Z-score (IL-36b (human)) | Z-score (IL-36g (human)) | Z-score (IL-37 (human)) | Z-score [2] | Binder | further results |
| --- | --- | --- | --- | --- | --- | --- | --- | --- | --- | --- | --- | --- | --- | --- | --- | --- | --- |
| 16300 | 50.9 | 40.8 | 45600 | 91.5 | -0.016 | 0.003 | -0.014 | -0.017 | -0.014 | -0.019 | 0.012 | -0.01 | -0.008 | -0.016 | 142 | CD1-M8 (antibody, from a related filing, V domains shown) VH: EVQLQQSGPELVKPGASVKMSCKASGYTFTDYYIHWVKQSHGKGLEWIGYIFPNNGGNGYSQKFKGKATMTVDKSSSTAYMELRSLTSEDSAVYYCARGGYDAGFVYWGQGTLVTVSA VL: DIVMSQSPSSLAVSAGEKVTMSCKSSQSLFNSGARKNFLAWYQQKPGQSPKLLIYWASTRESGVPDRFTGSGSGTDFTLTISSVQAEDLAVYYCKQSYYLITFGAGTKLELK | – |
| 19100 | 49.2 | 26.2 | 54000 | 90.3 | -0.016 | -0.013 | -0.013 | -0.016 | -0.02 | -0.017 | -0.008 | -0.016 | -0.017 | -0.013 | 140 | CD1-M3 (antibody, from a related filing, V domains shown) VH: EVQLQQSGPELVKPGASVKIPCKASGYTFTDYNMDWVKQSHGKSLEWIGDINPNNGGTIYNQKFKGKATLTVDKSSSTAYMELRSLTSEDTAVYYCSRPYYGYFAYWGQGTLVTVSA VL: DVVMTQSPLSLPVSLGDQASISCRSSQSLVHSHENTFLHWYLQKPGQSPKLLIYRVSNRFSGVPDRFSGSGSGTDFTLKISRVEAEDLGVYFCSQSTHVPLTFGAGTKLELK | F635 (Hnmph1): 4130; Z-score (Hnmph1): 10.6; s-score (Hnmph1): 5; Z-score [1]: 140; Kd [3]: 0.721 nM |
